Data set [1] addresses T1, HcIDH (Homo sapiens, UniProt O75874).
T1 construct: gene IDH1; synthetic gene, 6xHis-tagged, pET-28b(+), E. coli Rosetta (DE3); 420 residues per subunit
Briefly: NADPH formation at […] nm, nonlinear regression. It counts as biochemical. To be noted: 0.5 mM NADP+, 2 mM MgCl2, 50 mM Tris-HCl pH 8.0, 25°C; apparent; as D-isocitrate; read-out: Isocitrate ^a / K m.

The target of data set [2] is T2, HcIDH (Homo sapiens, UniProt O75874, R132H).
T2 construct: gene IDH1; synthetic gene, 6xHis-tagged, pET-28b(+), E. coli Rosetta (DE3); 420 residues per subunit
Briefly: NADPH formation at […] nm, linear regression. It counts as biochemical. The following applies: 0.5 mM NADP+, 2 mM MgCl2, 50 mM Tris-HCl pH 8.0, 25°C; apparent; as D-isocitrate; read-out: Isocitrate ^a / K m.

For data set [3], the target named is T2, HcIDH. Briefly: NADPH consumption at […] nm. To be noted: 2 mM MgCl2, 50 mM Tris-HCl pH 8.0, neomorphic reduction to 2-HG, read-out: α-KG / K m. It counts as biochemical.
Substrate in data set [4]: O=C(O)C[C@H](C(=O)O)[C@@H](O)C(=O)O
Briefly: purified protein. It counts as biochemical, Saccharomyces cerevisiae. The following applies: 0.5 mM NADP+, 2 mM MgCl2, 50 mM Tris-HCl pH 8.0, 25°C, apparent, as D-isocitrate.

Substrate in data set [5]: NC(=O)c1ccc[n+]([C@@H]2O[C@H](COP(=O)(O)OP(=O)(O)OC[C@H]3O[C@@H](n4cnc5c(N)ncnc54)[C@H](OP(=O)(O)O)[C@@H]3O)[C@@H](O)[C@H]2O)c1
The experiment in a line: purified protein. It counts as biochemical, Saccharomyces cerevisiae. To be noted: isocitrate, MgCl2, 50 mM Tris-HCl pH 8.0, 25°C, varied: cofactor.

Substrate in data set [6]: NC(=O)C1=CN([C@@H]2O[C@H](COP(=O)(O)OP(=O)(O)OC[C@H]3O[C@@H](n4cnc5c(N)ncnc54)[C@H](OP(=O)(O)O)[C@@H]3O)[C@@H](O)[C@H]2O)C=CC1
The experiment in a line: purified protein. It counts as biochemical, Saccharomyces cerevisiae. To be noted: α-KG, 2 mM MgCl2, 50 mM Tris-HCl pH 8.0, neomorphic reduction, varied: cofactor.

Substrate in data set [7]: O=C(O)CCC(=O)C(=O)O
The experiment in a line: purified protein. It counts as biochemical, Saccharomyces cerevisiae. The following applies: NADPH, 2 mM MgCl2, 50 mM Tris-HCl pH 8.0, neomorphic reduction to 2-HG.

Substrate in data set [8]: O=C(O)C[C@H](C(=O)O)[C@@H](O)C(=O)O
Briefly: purified protein. It counts as biochemical, Yarrowia lipolytica. The following applies: 0.5 mM NADP+, 2 mM MgCl2, 50 mM Tris-HCl pH 8.0, 25°C, apparent, as D-isocitrate.

Substrate in data set [9]: NC(=O)c1ccc[n+]([C@@H]2O[C@H](COP(=O)(O)OP(=O)(O)OC[C@H]3O[C@@H](n4cnc5c(N)ncnc54)[C@H](OP(=O)(O)O)[C@@H]3O)[C@@H](O)[C@H]2O)c1
The experiment in a line: purified protein. It counts as biochemical, Yarrowia lipolytica. To be noted: isocitrate, MgCl2, 50 mM Tris-HCl pH 8.0, 25°C, varied: cofactor.

Substrate in data set [10]: NC(=O)C1=CN([C@@H]2O[C@H](COP(=O)(O)OP(=O)(O)OC[C@H]3O[C@@H](n4cnc5c(N)ncnc54)[C@H](OP(=O)(O)O)[C@@H]3O)[C@@H](O)[C@H]2O)C=CC1
The experiment in a line: purified protein. It counts as biochemical, Yarrowia lipolytica. To be noted: α-KG, 2 mM MgCl2, 50 mM Tris-HCl pH 8.0, neomorphic reduction, varied: cofactor.

Substrate in data set [11]: O=C(O)CCC(=O)C(=O)O
The experiment in a line: purified protein. It counts as biochemical, Yarrowia lipolytica. To be noted: NADPH, 2 mM MgCl2, 50 mM Tris-HCl pH 8.0, neomorphic reduction to 2-HG.

The source of these data is paper PMC4263744, “Single Arginine Mutation in Two Yeast Isocitrate Dehydrogenases: Biochemical Characterization and Functional Implication” (PLoS ONE, 2014).

T2 sequence (O75874 whole entry R132H): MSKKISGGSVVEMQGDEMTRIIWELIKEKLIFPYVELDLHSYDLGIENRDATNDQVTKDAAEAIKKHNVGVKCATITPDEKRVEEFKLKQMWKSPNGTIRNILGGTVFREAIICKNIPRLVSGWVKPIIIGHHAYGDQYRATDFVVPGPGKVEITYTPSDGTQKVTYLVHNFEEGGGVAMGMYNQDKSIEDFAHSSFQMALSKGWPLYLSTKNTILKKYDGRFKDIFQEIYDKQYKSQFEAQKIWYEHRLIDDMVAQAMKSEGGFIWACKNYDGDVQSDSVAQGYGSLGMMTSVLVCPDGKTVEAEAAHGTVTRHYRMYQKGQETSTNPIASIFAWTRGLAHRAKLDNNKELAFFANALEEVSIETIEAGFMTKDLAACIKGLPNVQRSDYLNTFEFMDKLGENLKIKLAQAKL
T1 sequence (O75874 whole entry): as the sequence (O75874 whole entry R132H) above, with H132R counted along it

As to `O=C(O)C[C@H](C(=O)O)[C@@H](O)C(=O)O` [isocitrate], the figures for the Km on HcIDH [1] and at HcIDH [2] were 5.7 ± 1.4 µM and 2.28 ± 0.195 mM, respectively.
For `O=C(O)CCC(=O)C(=O)O` [α-KG], the Km at HcIDH [3] was determined as 157 ± 38.4 µM.

B1: ScIDH1 (Saccharomyces cerevisiae S288C) (protein)
chain: FSKIKVKQPVVELDGDEMTRIIWDKIKKKLILPYLDVDLKYYDLSVESRDATSDKITQDAAEAIKKYGVGIKCATITPDEARVKEFNLHKMWKSPNGTIRNILGGTVFREPIVIPRIPRLVPRWEKPIIIGRHAHGDQYKATDTLIPGPGSLELVYKPSDPTTAQPQTLKVYDYKGSGVAMAMYNTDESIEGFAHSSFKLAIDKKLNLFLSTKNTILKKYDGRFKDIFQEVYEAQYKSKFEQLGIHYEHRLIDDMVAQMIKSKGGFIMALKNYDGDVQSDIVAQGFGSLGLMTSILVTPDGKTFESEAAHGTVTRHYRKYQKGEETSTNSIASIFAWSRGLLKRGELDNTPALCKFANILESATLNTVQQDGIMTKDLALACGNNERSAYVTTEEFLDAVEKRLQKEIKSIE
notes: 6xHis-tagged, pET-28b(+), E. coli Rosetta (DE3); transit peptide absent (forward primer encodes M-FSKIKVK); 419 residues per subunit
By kcat is commonly meant the maximal rate divided by the concentration of active sites. One may read the kcat/Km as the turnover number divided by the Michaelis constant. Turning to B1, in the data set “purified protein [4]”, the Km is 10.5 ± 1.2 µM, the kcat came to 26.3 ± 0.09 s⁻¹ and the kcat/Km came to 2.5e+06 M⁻¹ s⁻¹. Besides, in the data set “purified protein [5]”, the Km stood at 17.4 ± 2.01 µM.

B2: ScIDH1 (Saccharomyces cerevisiae S288C; R148H) (protein)
chain: FSKIKVKQPVVELDGDEMTRIIWDKIKKKLILPYLDVDLKYYDLSVESRDATSDKITQDAAEAIKKYGVGIKCATITPDEARVKEFNLHKMWKSPNGTIRNILGGTVFREPIVIPRIPRLVPRWEKPIIIGHHAHGDQYKATDTLIPGPGSLELVYKPSDPTTAQPQTLKVYDYKGSGVAMAMYNTDESIEGFAHSSFKLAIDKKLNLFLSTKNTILKKYDGRFKDIFQEVYEAQYKSKFEQLGIHYEHRLIDDMVAQMIKSKGGFIMALKNYDGDVQSDIVAQGFGSLGLMTSILVTPDGKTFESEAAHGTVTRHYRKYQKGEETSTNSIASIFAWSRGLLKRGELDNTPALCKFANILESATLNTVQQDGIMTKDLALACGNNERSAYVTTEEFLDAVEKRLQKEIKSIE
notes: as for B1
As to B2, the Km in the data set “purified protein [6]” stood at 5.9 ± 0.51 µM; in “purified protein [4]”, 24.8 ± 3.2 µM; in “purified protein [7]” it was 30.0 ± 1.76 µM. The turnover number (kcat) is 0.27 ± 0.015 s⁻¹ in “purified protein [4]” and 0.34 ± 0.009 s⁻¹ in “purified protein [7]”. Besides, the kcat/Km in the data set “purified protein [4]” and in the data set “purified protein [7]” was 11000 M⁻¹ s⁻¹ in each case.

B3: ScIDH1 (Saccharomyces cerevisiae S288C; R148A) (protein)
chain: FSKIKVKQPVVELDGDEMTRIIWDKIKKKLILPYLDVDLKYYDLSVESRDATSDKITQDAAEAIKKYGVGIKCATITPDEARVKEFNLHKMWKSPNGTIRNILGGTVFREPIVIPRIPRLVPRWEKPIIIGAHAHGDQYKATDTLIPGPGSLELVYKPSDPTTAQPQTLKVYDYKGSGVAMAMYNTDESIEGFAHSSFKLAIDKKLNLFLSTKNTILKKYDGRFKDIFQEVYEAQYKSKFEQLGIHYEHRLIDDMVAQMIKSKGGFIMALKNYDGDVQSDIVAQGFGSLGLMTSILVTPDGKTFESEAAHGTVTRHYRKYQKGEETSTNSIASIFAWSRGLLKRGELDNTPALCKFANILESATLNTVQQDGIMTKDLALACGNNERSAYVTTEEFLDAVEKRLQKEIKSIE
notes: as for B1
Regarding B3, in “purified protein [4]”, the Km came out at 2263.1 ± 177.3 µM, the kcat was 12.4 ± 5.31 s⁻¹ and the kcat/Km came out at 5000 M⁻¹ s⁻¹.

B4: YlIDH (Yarrowia lipolytica CLIB122) (protein)
chain: MSTTATRGLSTKIKVKNPIVELDGDEMTRIIWKSIKDKLILPYLDIDLKYYDLGIEYRDQTNDQVTIDAAEAIKKYQVGVKCATITPDEARVKEFGLKKMWLSPNGTIRNILGGTVFREPIVIPAVPRLVPGWKEPIIIGRHAHGDQYKAQDAVIPGAGELTLNFKPANGGDEQVIKVYTYDAPGVAMAMYNTDESITGFAYSSFNLALQKKLPLYMSTKNTILKKYDGRFKDIFQEIYDKEYKDKFDAAGIWYEHRLIDDMVAQMIKSKGGFIMALKNYDGDVQSDIVAQGFGSLGLMTSVLVTPDGKTFESEAAHGTVTRHYRQHQQGKETSTNSIASIFAWTRGLIQRGILDETPEVTKFAEALEKATVDTVDKDGIMTKDLALAGGKTDRSSYVLTEEFIDAVANRLKKDLA
notes: 6xHis-tagged, pET-28b(+), E. coli Rosetta (DE3); forward primer encodes MSTTATR; 422 residues per subunit
With B4, in the data set “purified protein [8]”, the Km was found to be 11.7 ± 1.1 µM, the turnover number (kcat) worked out at 26.6 ± 0.87 s⁻¹ and the kcat/Km was determined as 2.3e+06 M⁻¹ s⁻¹. In addition, the Km in the data set “purified protein [9]” worked out at 4.1 ± 0.76 µM.

B5: YlIDH (Yarrowia lipolytica CLIB122; R141H) (protein)
chain: MSTTATRGLSTKIKVKNPIVELDGDEMTRIIWKSIKDKLILPYLDIDLKYYDLGIEYRDQTNDQVTIDAAEAIKKYQVGVKCATITPDEARVKEFGLKKMWLSPNGTIRNILGGTVFREPIVIPAVPRLVPGWKEPIIIGHHAHGDQYKAQDAVIPGAGELTLNFKPANGGDEQVIKVYTYDAPGVAMAMYNTDESITGFAYSSFNLALQKKLPLYMSTKNTILKKYDGRFKDIFQEIYDKEYKDKFDAAGIWYEHRLIDDMVAQMIKSKGGFIMALKNYDGDVQSDIVAQGFGSLGLMTSVLVTPDGKTFESEAAHGTVTRHYRQHQQGKETSTNSIASIFAWTRGLIQRGILDETPEVTKFAEALEKATVDTVDKDGIMTKDLALAGGKTDRSSYVLTEEFIDAVANRLKKDLA
notes: as for B4
Consider B5, for which, in the data set “purified protein [10]”, the Km turned out to be 3.2 ± 0.43 µM. Besides, in the data set “purified protein [8]”, the Km was found to be 25.6 ± 2.3 µM, the kcat turned out to be 0.14 ± 0.006 s⁻¹ and the kcat/Km turned out to be 5000 M⁻¹ s⁻¹. Moreover, in the data set “purified protein [11]”, the Km was 47.3 ± 4.2 µM, the kcat stood at 0.43 ± 0.017 s⁻¹ and the kcat/Km turned out to be 9000 M⁻¹ s⁻¹.
